Common to all, as to experiment: SEC; analytical Superdex 200 increase 10/300 GL; 180 μM protein in 50 μL injected; 20 mM Hepes (pH 7.5); 0.75 ml/min; 25°C; dimer to monomers
(Size exclusion chromatography separates by hydrodynamic size, large species first.)

Experiment [1] deals with SARS-CoV-2 3CLpro C145S variant (SARS-CoV-2).
For experiment [2] the target is unchanged. The source holds these as a separate data set.
Experiment [3] concerns the target SARS-CoV-2 3CLpro H41E variant (SARS-CoV-2).
The target of experiment [4] is SARS-CoV-2 3CLpro C145A variant (SARS-CoV-2).
The target is the same in experiment [5]. The source holds these as a separate data set.
Experiment [6] deals with SARS-CoV-2 3CLpro H41D variant (SARS-CoV-2).
For experiment [7], the target named is SARS-CoV-2 3CLpro H41A variant (SARS-CoV-2).

Read-outs that look alike come from different tables or passages of the source.

Broadly, the stoichiometry N is a count of units in the complex or per binding partner.

On to “SARS-CoV-2 3CLpro C145S variant (enzyme)”, for which the stoichiometry N in experiment [1] is 2; in experiment [2] it was above 2.

For the substance SARS-CoV-2 3CLpro H41E variant (enzyme), the stoichiometry N in experiment [3] amounted to 2.

With “SARS-CoV-2 3CLpro C145A variant (enzyme)”, the stoichiometry N in experiment [4] was above 2; in experiment [5], 2.

Turning to SARS-CoV-2 3CLpro H41D variant (enzyme), in experiment [6], the stoichiometry N came to 2.

In experiment [7], SARS-CoV-2 3CLpro H41A variant (enzyme) returned a stoichiometry N of 2.
